Patent publication US20180142032A1 (Sanofi, published 2018)
Values belong to the binder of their own block, whether it stands above or below them.

How the values were obtained:
[1] = target: T1, LAMP1_mL1_hL2_mL34_ΔGYQTI (mouse; human, UniProt P11438 25-369); test: flow cytometry, transfected 293-F cells
T1 construct: on cells; also called pXL5988; not shown: transmembrane domain and cytoplasmic tail with GYQTI replaced by 5 Ala
T1 chain: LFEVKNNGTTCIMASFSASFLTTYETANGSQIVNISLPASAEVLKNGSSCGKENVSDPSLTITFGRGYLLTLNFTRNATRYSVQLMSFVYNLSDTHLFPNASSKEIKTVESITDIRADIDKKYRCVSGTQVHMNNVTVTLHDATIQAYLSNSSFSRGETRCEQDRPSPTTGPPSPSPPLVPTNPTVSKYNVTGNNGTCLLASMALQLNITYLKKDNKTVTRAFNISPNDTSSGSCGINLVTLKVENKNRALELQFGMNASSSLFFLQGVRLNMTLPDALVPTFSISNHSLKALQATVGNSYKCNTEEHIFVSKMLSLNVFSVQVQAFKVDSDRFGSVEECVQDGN

[2] = target: T2, human LAMP1 at the cell surface (human, UniProt P11279 29-417); test: cell-based or functional assay
T2 sequence: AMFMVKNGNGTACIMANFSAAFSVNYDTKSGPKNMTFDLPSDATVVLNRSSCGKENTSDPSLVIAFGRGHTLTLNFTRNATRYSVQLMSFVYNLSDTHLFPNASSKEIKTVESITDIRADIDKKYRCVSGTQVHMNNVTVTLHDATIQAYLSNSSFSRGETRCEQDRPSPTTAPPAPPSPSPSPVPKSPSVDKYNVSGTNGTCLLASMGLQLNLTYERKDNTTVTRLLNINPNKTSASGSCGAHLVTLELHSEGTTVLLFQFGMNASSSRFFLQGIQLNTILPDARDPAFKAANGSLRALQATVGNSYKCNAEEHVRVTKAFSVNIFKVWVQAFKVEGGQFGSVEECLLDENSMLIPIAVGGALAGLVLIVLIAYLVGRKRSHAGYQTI

LAMP1_mL1_hL234_ΔGYQTI = target: T3, LAMP1_mL1_hL234_ΔGYQTI (mouse; human); test: flow cytometry, transfected 293-F cells
T3 construct: on cells; also called pXL5668
T3 chain: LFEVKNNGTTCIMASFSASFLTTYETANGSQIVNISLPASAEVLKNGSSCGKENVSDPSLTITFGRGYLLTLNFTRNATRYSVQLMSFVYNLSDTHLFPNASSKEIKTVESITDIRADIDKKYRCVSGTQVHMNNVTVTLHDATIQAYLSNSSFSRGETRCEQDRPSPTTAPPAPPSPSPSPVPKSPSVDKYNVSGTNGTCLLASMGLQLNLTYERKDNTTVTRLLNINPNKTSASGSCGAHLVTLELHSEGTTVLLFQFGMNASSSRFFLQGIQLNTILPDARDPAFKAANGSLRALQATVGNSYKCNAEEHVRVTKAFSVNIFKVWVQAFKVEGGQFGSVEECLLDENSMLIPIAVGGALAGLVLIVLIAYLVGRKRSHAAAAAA

[3] = target: T4, recombinant human LAMP2 with a C-terminal 10 His-tag (human, UniProt P13473 29-375); test: ELISA on coated soluble human LAMP2
T4 construct: bought; also called soluble LAMP2 protein (R&D Systems 6228-LM)
T4 sequence (P13473 other isoform, or with tags, fused parts or gaps): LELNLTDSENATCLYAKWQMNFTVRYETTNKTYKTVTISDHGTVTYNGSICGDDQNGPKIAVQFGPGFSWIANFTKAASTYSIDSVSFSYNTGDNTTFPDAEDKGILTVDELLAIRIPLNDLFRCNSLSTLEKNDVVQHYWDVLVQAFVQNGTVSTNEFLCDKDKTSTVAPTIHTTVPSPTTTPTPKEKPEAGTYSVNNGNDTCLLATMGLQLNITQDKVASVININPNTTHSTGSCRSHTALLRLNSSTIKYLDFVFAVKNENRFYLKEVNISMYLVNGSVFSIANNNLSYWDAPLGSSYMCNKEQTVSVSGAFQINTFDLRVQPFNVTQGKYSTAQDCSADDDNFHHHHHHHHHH

LAMP1::histag [4] = target: T5, LAMP1::histag (human, UniProt P11279 29-382); test: ELISA
T5 construct: extracellular domain without signal peptide, C-terminal 6 His tag, made in HEK293 cells; also called recombinant human LAMP1; human LAMP1 (29-382)
T5 sequence: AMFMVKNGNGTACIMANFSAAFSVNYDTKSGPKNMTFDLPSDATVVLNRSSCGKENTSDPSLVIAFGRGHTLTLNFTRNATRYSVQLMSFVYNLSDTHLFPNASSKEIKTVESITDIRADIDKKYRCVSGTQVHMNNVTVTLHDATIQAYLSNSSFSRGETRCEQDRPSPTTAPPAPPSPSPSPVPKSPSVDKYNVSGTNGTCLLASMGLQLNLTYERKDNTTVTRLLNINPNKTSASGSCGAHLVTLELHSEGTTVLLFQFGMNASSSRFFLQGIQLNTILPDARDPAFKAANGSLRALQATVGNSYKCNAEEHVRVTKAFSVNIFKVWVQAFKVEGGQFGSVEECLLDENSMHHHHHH

cLAMP1::histag [5] = target: T6, cLAMP1::histag (cynomolgus monkey, UniProt P11279 29-380 (human entry)); test: ELISA
T6 construct: extracellular domain with C-terminal tag that includes 6 His; also called cynomolgus LAMP1 (27-380); cynomolgus monkey LAMP1 protein
T6 chain: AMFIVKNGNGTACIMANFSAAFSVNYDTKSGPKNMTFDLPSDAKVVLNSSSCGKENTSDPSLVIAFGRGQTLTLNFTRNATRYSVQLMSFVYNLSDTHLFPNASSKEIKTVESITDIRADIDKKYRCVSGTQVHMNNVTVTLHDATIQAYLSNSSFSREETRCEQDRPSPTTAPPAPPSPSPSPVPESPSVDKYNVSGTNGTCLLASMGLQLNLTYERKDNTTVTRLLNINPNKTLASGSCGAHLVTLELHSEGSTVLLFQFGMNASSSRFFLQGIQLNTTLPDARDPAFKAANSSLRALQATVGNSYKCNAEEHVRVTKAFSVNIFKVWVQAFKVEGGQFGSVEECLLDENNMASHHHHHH

cLAMP1::histag [6] = target: T6, cLAMP1::histag; test: ELISA on recombinant cynomolgus LAMP1
LAMP1::histag [7] = target: T5, LAMP1::histag; test: ELISA on recombinant human LAMP1
[8] = target: T4, recombinant human LAMP2 with a …; test: ELISA with soluble LAMP1 or LAMP2
[9] = target: T2, human LAMP1 at the cell surface; test: flow cytometry, dissociated CR-IGR-034P colon PDX cells
Experimental: Advanced human primary colon tumor CR-IGR-034P was obtained from Patient-derived xenograft in mice. Tumor CR-IGR-034P was enzymatically dissociated using collagenase Type IV (Invitrogen; #17104-019) and deoxyribonuclease I (Invitrogen; #18047-019) for 1 h at 4° C. Cell viability was estimated by Viacount application using Guava® easyCyte™ 8HT Flow Cytometry System. […] 100 μL/well of goat anti-mouse IgG conjugated with Alexa647 (Invitrogen; # A2135) or goat anti-human IgG conjugated with Alexa488 (Invitrogen; # A11013) was added for 45 min at 4° C. and washed three times with PBS 1% BSA. The antibody binding was evaluated after centrifugation and resuspension of cells by adding 200 μl/well PBS 1% BSA and read using Guava® easyCyte™ 8HT Flow Cytometry System. EC50 values were estimated using BIOST@T-SPEED software.

binding result [1]: no binding
ADCC EC50, NK batch 6712562616 [2]: 2000 pM
ADCC EC50, NK batch 67125626389 [2]: 100 pM
ADCC EC50, NK batch 67125903091 [2]: 500 pM
binding result (LAMP1_mL1_hL234_ΔGYQTI): no binding
B1: chMAb2 (antibody, human IgG1, kappa)
heavy: not shown
light: NIVLTQSPVSLAVSLGQRATISCRASESVDINGNTFMHWYQQKPGQSPKLVIYAASNIESGVPARFSGSGSSTDFTFTIDPVEADDVATYYCQQNIEDPWTFGGGTKVEIKRTVAAPSVFIFPPSDEQLKSGTASVVCLLNNFYPREAKVQWKVDNALQSGNSQESVTEQDSKDSTYSLSSTLTLSKADYEKHKVYACEVTHQGLSSPVTKSFNRGEC
notes: chimeric, human IgG1, Ckappa

binding result [3]: no binding (tested: 10 µg/mL)
EC50 (LAMP1::histag [4]): 200 to 400 pM
EC50 (cLAMP1::histag [5]): 200 to 400 pM
EC50 (cLAMP1::histag [6]): 220 pM
EC50 (LAMP1::histag [7]): 390 pM
fold difference of EC50 (LAMP1 versus LAMP2) [8]: > 100 fold
EC50 [9]: 1300 pM
B2: MAb4 (antibody, mouse IgG1, V domains shown)
VH: QVQLQQSGAELVRPGTSVKVSCKASGYAFTNYLIEWVKQRPGQGLEWIGVINPGSGGTNYNEKFKGKATLTADKSSSTAYMQLSSLTSDDSAVYFCARYRSYDWYFDVWGAGTTVTVSS
VL: DIQMTQSPASLSASVGETVTITCRVSGNIHNYLAWYQQKQGKSPQLLVYNAKTLADGVPSRFSGSGSGTQYSLKINSLQPEDFGSYYCQHFWSNPYTFGGGTKLEIK
notes: also called antibody from hybridoma 88LAMP1-2
